2 substances from patent publication US10548981B2, “Silk-based drug delivery system” (TRUSTEES OF TUFTS COLLEGE, priority 2004, dated 2020) can be followed below.

Entries after “also recorded” stand apart in the source; their conditions may differ.

A short description of data set [1]: Protein activity after water vapor treatment of drug loaded films. It is filed as physicochemical. As to conditions: water vapor treatment of drug loaded films at 25° C. over a saturated Na2SO4 solution for 24 hours. As to the method: Conclusion: Drug release from silk films was a function of the drugs molecular weight and film treatment with methanol. […] This decrease of activity was correlated to methanol sensitivity of Lys (and to a lesser extent for HRP). Alternatively, crystallinity can be induced by water vapor treatment (data not shown) of drug loaded films at 25° C. over a saturated Na2SO4 solution for 24 hours.

The nature of data set [2]: Release of HRP and Lysozyme from silk films, analyzed by biological potency tests (FIG. 5). The conditions noted are these: for release / released protein-drug activity: methanol treated films. It is filed as physicochemical.
Setting [3] is: loaded films exposed to methanol.

Regarding horseradish peroxidase [HRP], in data set [1], the protein activity result is recorded as “No loss of protein activity”. In data set [2] (setting [3]), the continuous release until is 23 days, the initial burst entry is on record as “No initial burst” and the start of release stood at 5 days. Also, the “release / released protein-drug activity” value in data set [2] is recorded as “substantially less protein-drug activity”. Also, in data set [2] (native silk films), the “initial burst, of the total loading” value stood at 5% and the lag phase entry is on record as “two”.
With Lysozyme, the protein activity result in data set [1] was “No loss of protein activity”. The “release / released protein-drug activity” value in data set [2] (listed as Lys) is “did not release substantial amounts over time; also recorded: substantially less protein-drug activity”.
